In PMC4882005, “Functional Cooperativity between ABCG4 and ABCG1 Isoforms” (PLoS ONE, 2016):

Target: GFP-ABCG4 (UniProt Q9H172-1 1-646)
Assay: co-IP; HEK293 co-transfected with the GFP-tagged and the untagged protein (untagged in excess), lysed 24 h after transfection in 50 mM Tris pH 7.4, 150 mM NaCl, 0.5% NP-40; precipitated with anti-GFP on protein G-sepharose, 2 h at 4°C; Western blot of the precipitate
Conditions: partners not purified

GFP-ABCG4, sequence (Q9H172 whole entry): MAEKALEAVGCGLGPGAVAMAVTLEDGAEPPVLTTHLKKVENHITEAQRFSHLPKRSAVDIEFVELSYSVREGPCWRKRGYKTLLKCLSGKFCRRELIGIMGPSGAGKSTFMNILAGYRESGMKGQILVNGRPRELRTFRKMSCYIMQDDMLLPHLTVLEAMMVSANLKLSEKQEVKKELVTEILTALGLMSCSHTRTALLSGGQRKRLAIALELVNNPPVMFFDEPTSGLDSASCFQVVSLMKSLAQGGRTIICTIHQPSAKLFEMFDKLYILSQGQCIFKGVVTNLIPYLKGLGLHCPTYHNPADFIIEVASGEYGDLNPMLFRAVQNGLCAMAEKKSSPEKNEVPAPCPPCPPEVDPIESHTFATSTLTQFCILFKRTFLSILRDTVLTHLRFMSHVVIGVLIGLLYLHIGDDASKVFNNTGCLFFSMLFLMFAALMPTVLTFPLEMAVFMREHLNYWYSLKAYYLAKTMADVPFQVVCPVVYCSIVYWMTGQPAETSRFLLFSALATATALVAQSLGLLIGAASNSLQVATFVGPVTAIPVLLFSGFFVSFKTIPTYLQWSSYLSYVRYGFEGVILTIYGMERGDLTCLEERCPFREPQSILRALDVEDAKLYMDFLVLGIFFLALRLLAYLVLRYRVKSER

B1: ABCG4 (wild type, untagged) (natural protein)
chain: not shown
notes: the whole cDNA was probably expressed; also called wt ABCG4; source: HEK293, transfected (Fugene HD), in lysate
For B1, the “stoichiometry N” value was about 1.
